Results reported in US20130011868A1.
Where a chain is given by its changes, count along the chain named.

B1: F1232-37-2 (antibody, from a related filing, V domains shown)
VH: VQLQQSGPELVRPGESVKISCKGSGYTFTDYAIHWVKLSHAKSLEWIGVISIYYDDTNYNQKFKGKATMTVDKSSSTAYLELARLTSEDSAIYYCARRRDSSGPYAMDYWGQGTSVTVSS
VL: DIVLTQSPASLAVSLGQRATISCRASESVDSYGNSFMHWYQQKPGQPPKLLIYRASNLESGIPARFSGSGSRTDFTLTINPVEADDVATYYCQQSNEDPYTFGGGTKLEIKR
B2: F1249-3-2 (antibody, from a related filing, V domains shown)
VH: EVQLVESGGGLVKPGGSLKLSCAASGFTFSSYGMSWVRQTPDKRLEWVATISSGGSYTYYSDSVKGRFTISRDNAKNNLYLQLSSLKSQDTAIYYCARDSGYFDYWGQGTTLTVSS
VL: B1 VL with D1N, R54L, I62V, N80D, V87A, S95N, Y100R
B3: F1245-7-1 (antibody, from a related filing, V domains shown)
VH: QVQLQQPGAELVKPGASVKLSCKASGYTFTSYWMHWVKQRPGQGLEWIGMIHPNSGSTNYNEKFKSKATLTVDKSSSTAYMQLSSLTSEDSAVYYCASPVTAVVEYYFDYWGQGTTLTVSS
VL: SIVMTQTPKFLLVSAGDRVTITCKASQSVSNDVAWYQQKPGQSPKLLIYYASNRYTGVPDRFTGSGYGTDFTFTISTVQAEDLAVYFCQQDYSSLTFGSGTKLEIKR
B4: F1249-20-1 (antibody, from a related filing, V domains shown)
VH: QVQLQQSGAELVRPGVSVKISCKGSGYTFTDYAMHWVKQSHAKSLEWIGVISTYYGDTSYNQKFKGKATMTVDKSSSTAYMELARLTSEDSAIYYCARAEDYDPWFAYWGQGTLVTVSA
VL: B1 VL with H38Y, N96D, Y100L, G104A, I110L
B5: F1246-1-1 (antibody, from a related filing, V domains shown)
VH: EVQLVESGGDLVKPGGSLKLSCAASGFTFSSYGMSWVRQTPDKRLEWVATISNGGTYTYYPDSVKGRFTISRDNAKNTLYLQMSSLKSDDTAMYYCGRLRDYYAMDYWGQGTSVTVSS
VL: B1 VL with Y100W
B6: F1249-30-1 (antibody, from a related filing, V domains shown)
VH: B4 VH with T69A, E89D
VL: B1 VL with N96D, Y100L, G104A, I110L
B7: F1249-24-1 (antibody, from a related filing, V domains shown)
VH: B4 VH
VL: B1 VL with N96D, Y100L, G104A, I110L
B8: F1249-18-2 (antibody, from a related filing, V domains shown)
VH: QVQLQQPGAELVKPGASVKLSCKASGYTFTSYWMHWLKQRPGQGLEWIGMIHPNSDITNYNEKFKNKATLTVDKSSSTAYMQLSSLTSEDSAVYYCARSGDYYAMDYWGQGTSVTVSS
VL: SIVMTQTPKFLLVSAGDRVTITCKASQSVSNDVAWYQQKPGQSPKLLIYYASNRYTGVPDRFTGSGYGTDFTFTISTVQAEDLAVYFCQQDYSSPPTFGGGTKLEIKR
B9: F1245-6-2 (antibody, from a related filing, V domains shown)
VH: QVQLQQPGAELVKPGASVKLSCKASGYTFTSYWMHWVKQRPGQGLEWIGMIHPNSGSTNYNEKFKSKATLTVDKSSSTAYMQLSSLTSEDSAVYYCARGGVTPVAYWGQGTLVTVSA
VL: B8 VL with D60Y, P96W
B10: F1245-5-1 (antibody, from a related filing, V domains shown)
VH: B9 VH with T30I, N59H
VL: B8 VL with P96W
B11: F1249-5-1 (antibody, from a related filing, V domains shown)
VH: B8 VH with D73A, S99L
VL: B8 VL with A34T
B12: F1245-4-1 (antibody, from a related filing, V domains shown)
VH: QVQLQQPGAELVKPGASVKLSCKASGCTFTSYWMHWVKQRPGQGLEWIGMIHPNSDNTNYNEKFKSKATLTVDKSSSTAYMHLSSLTSEDSAVYYCATHYYDYVDYWGQGTTLTVSS
VL: B8 VL with S1N, P96W

These molecules were tested against rat GPVI-hFc fusion protein (rat; mouse; human) (assay: ELISA, immobilized rat GPVI-hFc, control).
Chain of rat GPVI-hFc fusion protein (rat; mouse; human) (P0C191 205-265): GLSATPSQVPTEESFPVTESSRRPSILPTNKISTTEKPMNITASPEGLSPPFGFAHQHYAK

Question: normal mouse IgG (antibody) was tested. Which absorbance at 450 nm (absorbance 450 nm) did it give?
Answer: The absorbance at 450 nm (absorbance 450 nm) was 0.123.

Question: For B1, which absorbance at 450 nm (absorbance 450 nm) is on record?
Answer: Its absorbance at 450 nm (absorbance 450 nm) is 0.137.

What follows are molecules tested against human GPVI-hFc fusion protein (human) (UniProt Q9HCN6) (assay: ELISA, immobilized hGPVI-hFc; + = absorbance 0.5 up to 1.0).

Question: With B2 as the molecule, how does the absorbance read?
Answer: The absorbance was 0.5 to 1 od.

The molecules below were run against hGPVI-mL9-hFc substituted mutant protein (human) (UniProt Q9HCN6) (assay: ELISA, immobilized hGPVI-mL9-hFc).

Question: For B3, which absorbance is on record?
Answer: Its absorbance is under 0.5 od.

Question: B1 was tested. Which absorbance did it give?
Answer: The absorbance was under 0.5 od.

Question: Which absorbance does the source give for B2 here?
Answer: Its absorbance is under 0.5 od.

Question: B4 was tested. Which absorbance did it give?
Answer: Its absorbance is under 0.5 od.

Question: With B5 as the molecule, how does the absorbance read?
Answer: Its absorbance is under 0.5 od.

Question: Which absorbance does the source give for B6 here?
Answer: The absorbance was under 0.5 od.

Question: With B7 as the molecule, how does the absorbance read?
Answer: Its absorbance is under 0.5 od.

Question: For B8, which absorbance is on record?
Answer: Its absorbance is under 0.5 od.

Question: Which absorbance does the source give for B9 here?
Answer: The absorbance was under 0.5 od.

Question: B10 was tested. Which absorbance did it give?
Answer: Its absorbance is under 0.5 od.

Question: How did the absorbance turn out when B11 was run?
Answer: The absorbance was under 0.5 od.

Question: How did the absorbance turn out when B12 was run?
Answer: The absorbance was under 0.5 od.

The molecules below were run against human GPVI-hFc fusion protein (human) (UniProt Q9HCN6) (assay: ELISA, immobilized hGPVI-hFc; ++ = absorbance 1.0 to 2.0).

Question: With B3 as the molecule, how does the absorbance read?
Answer: Its absorbance is 1 to 2 od.

Question: How did the absorbance turn out when B5 was run?
Answer: Its absorbance is 1 to 2 od.

Question: Which absorbance does the source give for B9 here?
Answer: The absorbance was 1 to 2 od.

Question: With B10 as the molecule, how does the absorbance read?
Answer: The absorbance was 1 to 2 od.

Question: With B11 as the molecule, how does the absorbance read?
Answer: Its absorbance is 1 to 2 od.

Each molecule was assayed against human GPVI-hFc fusion protein (human) (UniProt Q9HCN6) (assay: ELISA, immobilized hGPVI-hFc; +++ = absorbance greater than 2.0).

Question: For B4, which absorbance is on record?
Answer: Its absorbance is over 2 od.

Question: Which absorbance does the source give for B6 here?
Answer: Its absorbance is over 2 od.

Question: With B7 as the molecule, how does the absorbance read?
Answer: The absorbance was over 2 od.

Question: How did the absorbance turn out when B8 was run?
Answer: Its absorbance is over 2 od.

Question: For B12, which absorbance is on record?
Answer: Its absorbance is over 2 od.
